Several values for one entry are separate records, joined by “and”; a condition that tells them apart may be missing. Equal entries are not always repeated.
Tests used:
[1] = molecular target: protective antigen, proteolytically activated 63-kDa portion (PA63) (Bacillus anthracis); assay: native MS
[2] = molecular target: Lethal factor LFN (Bacillus anthracis) (UniProt P15917); settings: cited from earlier work
[3] = molecular target: protective antigen, proteolytically activated 63-kDa portion (PA63) (Bacillus anthracis); assay: negative-stain electron microscopy
[4] = molecular target: PA7(LFN)3 complex (heptameric PA oligomer with three LFN) (Bacillus anthracis)
[5] = molecular target: PA8(LFN)4 complex (octameric PA oligomer with four LFN) (Bacillus anthracis)
[6] = molecular target: PA7(LFN)3 complex (heptameric PA oligomer with three LFN) (Bacillus anthracis); assay: native MS
[7] = molecular target: PA8(LFN)4 complex (octameric PA oligomer with four LFN) (Bacillus anthracis); assay: native MS

## LF's PA binding domain (LFN, the first 263 residues of LF) (domain or fragment)
[1]
  stoichiometry N (LFN per PA2 intermediate): 1
  stoichiometry N (LFN per PA4 intermediate): 2
  stoichiometry N (LFN per PA7 oligomer): 3
  stoichiometry N (LFN per PA8 oligomer): 4

## Protective antigen (from UniProt P13423)
[2]
  Kd: 1 nM

## protective antigen, proteolytically activated 63-kDa portion (PA63) (domain or fragment)
[1]
  stoichiometry N: 4 and 2
  stoichiometry N (PA63 per oligomer): 8 and 7
[3]
  stoichiometry N (PA63 per oligomer): 7 and 8

## soluble monomeric ANTXR2 extracellular domain (msANTXR2), capillary morphogenesis protein 2 residues 40-217 (from UniProt P58335 40-217) (receptor)
[4]
  pH midpoint of the prechannel-to-channel transition, CD signal at 222 nm, 37°C: 5.8 pH
[5]
  pH midpoint of the prechannel-to-channel transition, CD signal at 222 nm, 37°C: 5.8 pH
[6]
  stoichiometry N (msANTXR2 per PA7(LFN)3 complex): 7
[7]
  stoichiometry N (msANTXR2 per PA8(LFN)4 complex): 8
